Results taken from publication PMC8284890 (Science Advances, 2021).

Molecular target: the molecule itself
Assay: cryo-EM particle classification

B1: NTD-truncated human NPC1L1 in the cholesterol-enriched form (domain or fragment, UniProt Q9UHC9-2 265-1332, looked up)
chain: AIARPQALDSTFYLGQMPGSLVLIIILCSVFAVVTILLVGFRVAPARDKSKMVDPKKGTSLSDKLSFSTHTLLGQFFQGWGTWVASWPLTILVLSVIPVVALAAGLVFTELTTDPVELWSAPNSQARSEKAFHDQHFGPFFRTNQVILTAPNRSSYRYDSLLLGPKNFSGILDLDLLLELLELQERLRHLQVWSPEAQRNISLQDICYAPLNPDNTSLYDCCINSLLQYFQNNRTLLLLTANQTLMGQTSQVDWKDHFLYCANAPLTFKDGTALALSCMADYGAPVFPFLAIGGYKGKDYSEAEALIMTFSLNNYPAGDPRLAQAKLWEEAFLEEMRAFQRRMAGMFQVTFMAERSLEDEINRTTAEDLPIFATSYIVIFLYISLALGSYSSWSRVMVDSKATLGLGGVAVVLGAVMAAMGFFSYLGIRSSLVILQVVPFLVLSVGADNIFIFVLEYQRLPRRPGEPREVHIGRALGRVAPSMLLCSLSEAICFFLGALTPMPAVRTFALTSGLAVILDFLLQMSAFVALLSLDSKRQEASRLDVCCCVKPQELPPPGQGEGLLLGFFQKAYAPFLLHWITRGVVLLLFLALFGVSLYSMCHISVGLDQELALPKDSYLLDYFLFLNRYFEVGAPVYFVTTLGYNFSSEAGMNAICSSAGCNNFSFTQKIQYATEFPEQSYLAIPASSWVDDFIDWLTPSSCCRLYISGPNKDKFCPSTVNSLNCLKNCMSITMGSVRPSVEQFHKYLPWFLNDRPNIKCPKGGLAAYSTSVNLTSDGQVLTSRFMAYHKPLKNSQDYTEALRAARELAANITADLRKVPGTDPAFEVFPYTITNVFYEQYLTILPEGLFMLSLCLVPTFAVSCLLLGLDLRSGLLNLLSIVMILVDTVGFMALWGISYNAVSLINLVSAVGMSVEFVSHITRSFAISTKPTWLERAKEATISMGSAVFAGVAMTNLPGILVLGLAKAQLIQIFFFRLNLLITLLGLLHGLVFLPVILSYVGPDVNPALALEQKRAEEAVAAVMVASCPNHPSRVSTADNIYVNHSFEGSIKGAGAISNFLPNNGRQF
modifications: N-glycosylated (10 N-glycosylation sites seen in the density map)
binding result: binds
